Measurements reported in publication PMC8660007 (Protein Engineering, Design and Selection, 2021).

How the values were obtained:
[1] = biological target: Modified Phage CTPR2; assay: ITC; 166.6 uM Keap1 titrated into 16.66 uM CTPR or peptide; 50 mM Tris-HCl 150 mM NaCl 0.5 mM TCEP pH 8; 20 injections of 2 ul; one-site binding model
[2] = biological target: T1, Keap1 Kelch domain construct (residues 321-624) (UniProt Q14145 321-624); assay: as above; settings: both partners purified
T1 construct: Keap1 Kelch domain, residues 321-624; pNIC28-BSA4 vector with a TEV cleavage site after the His-tag; gift of Alex Bullock (Structural Genomics Consortium, Oxford); No TEV cleavage is described in the purification; also called Kelch domain of Keap1; source: E. coli C41, purified (Ni-NTA, size exclusion chromatography)
T1 sequence (Q14145 321-624): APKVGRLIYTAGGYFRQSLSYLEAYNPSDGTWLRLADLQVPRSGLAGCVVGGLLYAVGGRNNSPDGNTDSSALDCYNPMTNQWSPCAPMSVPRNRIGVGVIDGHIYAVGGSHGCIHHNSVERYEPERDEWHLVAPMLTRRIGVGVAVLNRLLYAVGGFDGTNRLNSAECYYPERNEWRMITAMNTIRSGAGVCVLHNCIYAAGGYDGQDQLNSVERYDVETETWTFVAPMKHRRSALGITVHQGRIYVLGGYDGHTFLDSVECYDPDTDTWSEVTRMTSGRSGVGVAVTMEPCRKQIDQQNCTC

Chain of Keap1 Kelch domain construct (residues 321-624) (from UniProt Q14145 321-624) (domain or fragment) (Q14145 321-624): as above

Molecule	Kd [1] [nM]	Kd [2] [nM]
Keap1 Kelch domain construct (residues 321-624) (from UniProt Q14145 321-624) (domain or fragment)	22	–
Ac-LDPETGELL-NH2 (phage display-derived peptide DPETGEL extended by two flanking leucines; also called modified phage display-derived peptide; Modified phage display-derived free peptide; source: synthetic peptide (Cambridge Peptides Ltd)) [Ac-LDPETGELL-NH2]	–	4.65
Ac-DPETGEL-NH2 (peptide found by phage display (Hancock et al. 2012); also called phage display-derived peptide; phage display-derived free peptide; source: synthetic peptide (Cambridge Peptides Ltd)) [Ac-DPETGEL-NH2]	–	341
